Test: soluble on expression in E. coli; label from the status in PepcDB or PDB records
For “MGSDKIHHHHHHMPMNIVQVIPSFNVGGGELLAVRLCAEIKNQRPDYKVTLISLYDPIPSIVYDEALASDAQIVTLGKKKGFDPFTPLRMLKTLRAIKPDVIHTHLAGLRYTLLAGVLGNYSLKVHTVHNLATHETFGFLKNVHRVAFKFFSWIPVSLSKEVQDSVRDMYCLESVIVNNGIKTNSEIINKSKEDIRKHYGLPLNSKIIITIGRLCTQKNQLLLIESFNKVCKNAENYTLLIVGEDNLNGSYKNKIDKIISELPDITRENLHLLGPRKDIPELLIASDVFVLSSDWEGVPLTLLEAMGYGTPVVCTSVGGIPDVIEHGFDGLLVSKGDSKSLGNAIIEVLSNNSFASSLAHNARKKFSQLYSIEMTAEKYLQLYNA”, the “soluble on expression in E. coli” value was “not soluble”. In the case of “MKNSVDRELPAELMTKLNYQGFESTEIGHPEIQRVAPKVHVSTGDNKVVDSVADVVKATVKDGMTISFHHHFRNGDFVFNQVMRAIIDAGIKDLTLAPSSLTGVMNDMVIEAIKAGTITNITSSGMRGSLGDFVSHGGLKNPVIFRSHGNRARAIEHGDIKIDVAFLGVPNADRLGNANGMAGKAVFGSLGYALMDAQYANQVVLLTDNIVAYPNTPASIKQTQVDYVVQVDQVGDPDKIGSGATRFTKDPKELKIAQTVNNVIVNSPYFKNGFSFQTGSGGAALAVTRYLRQAMLDNQIKASFALGGITKPTTDLLEEGLVDKVMDVQDFDKGAAASMHANPNQQEIDASWYADPDNKGAMVDQLDVAILSALEIDTHFNVNVMSGSDGVIRGAIGGHQDAATAKLTIISAPLVRGRLATIVPEVTTVVTPGDSIDVVVTEYGIAINPRRQDLVKALSHVPGVPVYMIEELQQLAEKKVGQPQPLEFTDRTVALIEYRDGTIIDTIKAVKDLEHHHHHH”, the “soluble on expression in E. coli” value is reported as “not soluble”. With “MESEFLYDLLQLPKEVAQPTEEELPRGGKKKYLSPNSKRNPKFEELQKVLMEWINTTLLPEHIVVRSLEEDMFDGLILHHLFQKLASLKLEVEEISLTSASQRHKLGVILEAVNQNLQVEEKQAKWSVETIFNKDLLATLHLLVALAKRFQPDLPLPDNVQVEVIHIESTKTGLKSDKQVEQLTECKSHKDQPLQDAFDELFKLAPEKVHAVQEAIVSFVNQKLERLGLSVQSLDTQFADGVILLLLIGQLEGFFLHLTEFYLTPSSPTEMLHNVTLALDLLKDEGLFSYPVNPEDIVNKDAKSTLRILYSLFQKHSLRAEGGGAHHATPN” the “soluble on expression in E. coli” value was “soluble”. In the case of “MPFSFFSRKKPSRRFNDFYEDWSKTLTENCLPLLRQSLSSAASASVLSSNVDLVLRHLVLYYETLDLAADHNTIPYLLFPSWRNSLETPFLFLGDIHPYLLTNLLRSFIDRENQDSDDEDEETSLDLVNQPLKMTMAWKDPSDELVKRIDQIECTMRLMVPGLMDRMRKTQRSFVARVSESWVSSYQVGKKKKLTATVATASTSVDEAAKIEMEELVSIFVDANRLRKSVIMDIVGATSEHQAALFLEGLCQFLAGFKDQILLQDFEILSLPN”, the “soluble on expression in E. coli” value is reported as “soluble”. With “AQELYKNENAPVHERVMDLISRLTVEEKISLLRATSPGIPRLGIDKYYHGNEALHGVVRPGRFTVFPQAIGLAATWNPELQKRVATVISDEARARWNELDQGREQKEQFSDVLTFWSPTVNMARDPRWGRTPETYGEDPFLSGIMGTAFVNGLQGDDPHYLKIVSTPKHFAANNEEHNRFVCNPQISEKQLREYYFPAFEMCVKEGKAASIMSAYNALNDVPCTLNPWLLQKVLRQDWGFQGYVVSDCGGPALLVNAHKYVKTKEAAATLSIKAGLDLECGDDVYDGPLLNAYKQYMVSDADIDSAAYHVLTARMKLGLFDS” the “soluble on expression in E. coli” value was “not soluble”. For “MKKFKNILFATQGLPGHSDALEQAIQLAYNNRGQLAGLIAFPAFPADLQRYQEPYEQSYLNTLMETVEACRSQHHIHKDEVPFPLMVEHSEQPAVAIIKSALNHHIDLLIKEAEPMTHSQQGFKALDMTLLRKCPCPVWLHR”, the “soluble on expression in E. coli” value was “not soluble”. For “MSLIRCTDINEITPFSSFISKIPNHCGTHMDASRHFVKDGLSINELPIGYFCHKDVVLLEVPKGEAEGITKEDLEPYAAILAQVSFAFLCTGFEKYRTENPLIYQNEGPYIATSAGKYLSDNYPNLKGVGIWFPCTWFAVFSCTEGHHHHHH”, the “soluble on expression in E. coli” value was “not soluble”. With “MANLGETLKQLRKQRRWTQEQLAEQLNVSRSQISKWENGSLLPDVQSLEKLCQLFNISADFLLGGETRQRELLREVTDMYGTADVHETVLAALDYLLHNQEMSEAMYALAKLPDKKRKHVETMIMTIVKECSELI” the “soluble on expression in E. coli” value was “not soluble”. For “MILVTGFEPFGSLEHNPSQALLDLLPSEVDGKPLRKAVLPVDAEALGEALEDLHREGPKAVLHLGLAEDRPVLTLERLAVNLLDFPRPDNRGRVLEDLPIVPGGPLALPARFPVKPVLARWREAGIPGRPSLSAGSYLCNQAFYLSLYRLPEEVPVGFLHLPPDETLALKRPRPYVPLEVQARAVRLALEHL”, the “soluble on expression in E. coli” value was “soluble”. For “MGSDKIHHHHHHMNFCRILLKPLKKNEALSGYSAEGLHYLTDNKHFNPELPFSRQEFITVKPQKQQGMSISGFQPKLQLIIKDEHFDSVNQQGNYILKPSPEEYPFLAENEHATMRIMKELGFDVPENGLVSFAGEQNHKEFAFVITRFDRDKQQKPMHQEQLDGAMNIRDKYGKIGADNEQYVSYEQIAKFILQHTENHLAQQREIFRRIIYAYLLGNNDLHLRNFSFIYPKNSHPKLAPIYDFVSVSPYPEIFNSTLLALPLLAREEGNATLAKGFNTQYGEYIGDDFVEFGENIGLNKNVIIQKLIPEIIQEKEKVEQIYSQSFMPQPHIDCVLKTYRKRLALLNLLNEPEL”, the “soluble on expression in E. coli” value was “not soluble”. For “MGSDKIHHHHHHMTPIAQRDGQAIQLVGFDGDDTLWKSEDYYRTAEADFEAILSGYLDLGDSRMQQHLLAVERRNLKIFGYGAKGMTLSMIETAIELTEARIEARDIQRIVEIGRATLQHPVEVIAGVREAVAAIAADYAVVLITKGDLFHQEQKIEQSGLSDLFPRIEVVSEKDPQTYARVLSEFDLPAERFVMIGNSLRSDVEPVLAIGGWGIYTPYAVTWAHEQDHGVAADEPRLREVPDPSGWPAAVRALDAQAGRQQ”, the “soluble on expression in E. coli” value was “not soluble”. In the case of “EKVKNSDYTFEVDFEGPFFPIVEGVNSFGKRMYRVAPQVLRVPLEKPETRVISDIKNGEVLVYVFIQSPEGVVPVSLNLEGKRFRFFNLEGKWICVFKSFLEDGAHELEITFNGPYGYTFSLKKEIYVIKRVAVPMRGEDGAFDYTVFAEHVVKRGETLWSIANQYGVRVGDIVLINRLEDPDRIVAGQVLKIGRVYFRENPVTIVVNLFSSKLALYYDGVLLKVYPVALGRSDATPPGRYWVLRKEIDPALYWFGEYISPRTPLNGLGTRYLQLSDPTYAIHGTSKPWEIGKRISHGCIRMFNRDVEEIDAFAGVGTEVVVVKEDKEFPERIY”, the “soluble on expression in E. coli” value is reported as “not soluble”. For “MNIVEEHREKCTQCGQCLSVCPRYDDLGLLDLLYGYLEGTSEIEPDSLLSCLTCGLCADACPEALGIKMLISPARQKWVSEHGLTDRQLEHHHHHH”, the “soluble on expression in E. coli” value was “not soluble”. With “MVPSFPFQRLPNKPFQNVLKSMSVGNLLSYSMCSEASKSHVTNLKVKINSFEINVTENVHLFVKSEHGPTFNFRTVTSANGNISDDVTPANENEKHRWYKKGFELRNWIEHFLSVLNHSKIDKLNFISQQGERSKNDYLRDSLEGFKVDCFTVQQCSESYQRSIFRNFSPINTFIICATGAESTKAISSALPHNLKDFGYVSRGATWNFSLDNLLLSNSRNLVVIEARFSFPDINMFLKHWLNGSNRRLTNAYFIYTTPLVSEDISKGLPFSIPSEAEISKLPSDLMEHRETMFQLKRKFDSTATIVLKQNNGKHVFNMFVEHF” the “soluble on expression in E. coli” value was “not soluble”. With “MGSDKIHHHHHHMSFLIGPFLKSFIDNVIKDTVIPVKGSVVYCGLFGYAEHSGIYIGDNKIVHLDGSGIIEVVSPQQFIERLSGLNPAMSIYVSCNGSSATGTNTIAKRAKKMVGKSRKYHVILDNCHQFTSGCITGNFDNADNFLWMLKSTAGNKLSTNKWRVWERKYSS” the “soluble on expression in E. coli” value was “not soluble”. For “MSQGHRDAGAAACRTIIVTNHCPPIMRKRDIWRVDQFHLLRKVGSGYASTVYLGTCRTSGNQVAVKLYHKQKLSELNHFQVAREITIHSSLDHKNIIQLWAAFEDQYGIYLVFEYASKGDVFTEVERRGGQLDEAETVRAVVYPFLSALDYLHSRCIIHRDIKPENLLFTATGVLKVADFGLSINFSQERPVTRVGTLDYMAPEVVVCPDKHRPQDHKELKHLHYTPLVDAWAVGVLAYELIVGRPPFDKGQKKATIAEILNSEPFIPPWLSEGATHFIRWSLTKEVGKRPSVQQLAEHPWIVSHMKQSVLAPARRQLVKTDSFVEPRQLGFRGSNAPGAGEPSGPSKEPPRPLQVSSVAQGGRFLGHSSSMSAMDGMRYRDIHLDSVTGGMASAATEALKSVKRVSDGDGTTGGRPSAAGGRVSRAGTARNSGTGQAPLSRMNSMSAQAVVAAAAAAMASGSFGGAAHGSEDSPKGGRALTREELYASLTAPLGGRGSPVLARSFTAGRASPAPQQMAPLPTNAGRKSGGGGLGSGRSSLSGQATGAPPSRGAAELAHDLSRLRVDSAASGGGGAAGPSTSASGAVPYSPGKGSSGIRPSPPQAPSPTARGLRTGSPLIPSRLSQSFTSPVSPLAAGSNASAGTPHLSRLGKTSNSGIVPAVATANTPGSARPPAGMDAHSSAASSAAAAGAQSSPHQPAAAAAGSSLTVSTTPASPGGSSGYGQTRASPRELPGERDPELEDSEVEDEPETERSPSKSKSLFKKIFS”, the “soluble on expression in E. coli” value was “not soluble”. For “MGSDKIHHHHHHMTRSEAQGRLTGLAPVSVIDIGSNSVRLVVYEGLSRAPAVLFNEKVLCGLGKGLALTGRMHEEGVTRALMALRRFHVLSEQAQAQKLYVLATAAAREAENGPDFIREAEAILGCEIEVLSGEKEALYSAYGVISGFYQPDGIAGDLGGGSLELIDIKDKSCGEGITLPLGGLRLSEQSDGSLEKAATIARKHVKSFAKLLAAGEGRTFYAVGGTWRNIAKLHMEISGYPLHMMQGYELPLEEMLNFLEEVIVSRDSKDPAWQAVSKNRRSLLPFGAIAMREVLRAMKPAKIAFSAQGVREGYLYSLLTEAERESDPLLVAADELAILRARSPEHARELADWSGRTFPVFGIDETEEESRYRQAACLLADISWRAHPDYRGLQALNIIAHSSFVAITHPGRAYIALANYYRFEGLNDNGTTEPLAAMAGERLQELGKLLGGLLRVVYLFSASMPGVVDHLKFRKSDNPDIDLEFVVPHDYCDFAGERLDGRLQQLAKLTGKRLAFVFE”, the “soluble on expression in E. coli” value was “not soluble”. With “LAAGQLADLVVLSKDYFSVAEEEIKGIESVLTVVDGKVVYAAGHFSPLAPPPIPVLPEWSPVVKVPGHYRSAPPATAKIGAMVQMHQCCGSCGVHGHQHDIARKSSIPVSDEQAFWGVLGCSCFA” the “soluble on expression in E. coli” value was “not soluble”. For “MGSDKIHHHHHHMLKIDNLTKTLENKKVISGISFSLKPSQIVGLIGRNGVGKTTLFRLISGEYVPDQGRVTSDESADARSEIFYLDSPDNFTNAFTANQLARIFKVSYPQLDIDWFKNLLKTNNLSLNKKLSGMSKGQRGLILAISAITSKSKYIFLDEPLDGLDLIIRDQVKQMLITAVSNSDTSVMIASHNLEELDFLADRIILLKNGKIEKDYLPGEELKTANVAKLQMVIEGELPKVVSECGHILEKRGHLYVVLFKDYNSKVASRIKRTKAQYIEQLPVNSDDIFRATFEEDYRLRQSAGKRTNK”, the “soluble on expression in E. coli” value was “not soluble”. In the case of “MNDDTRARGGREGGLRAARDRLQPALLDRLTDDERARCTEPPDAQAIGGERLRAAVLRDLAWLLNTRNGEDGFVDWAAFAHAQASVLNYGMRPLVGKPMSGVERMSVEASIRDAIVRFEPRIAPDSVEVRSVLDAPGGAAGERRHNVLMFEIKGTLWSVPHPVEFVLRSALDLETGAMALQPAAGG”, the “soluble on expression in E. coli” value is reported as “not soluble”. For “IYAYVPLRTPENTGHLALLDGQLELAYQPIVEVAGSDTAQYQVLLRLRKADGNLLSAGLVIPAAEAAGRIMELDQQVIEQALDILKLHQDTNQQLRLFVSQSVRTLIHEGFSDWIIKNLRERNVNGTGLVIDLRLQDAVIHAIPLKQLCKELLKHNVKFCLSQFESNSEATVLFSELPLNFVRLSQHFGDAHNHPERQKELPLLIEQAHEHNLHVIGQCIEDAQAATFMWMNGVDLIQGNLFQNV”, the “soluble on expression in E. coli” value was “not soluble”.
